Where two headings read alike, the source gives them in different places.
T1: mouse C5 (mouse, UniProt P06684)
T1 chain 1: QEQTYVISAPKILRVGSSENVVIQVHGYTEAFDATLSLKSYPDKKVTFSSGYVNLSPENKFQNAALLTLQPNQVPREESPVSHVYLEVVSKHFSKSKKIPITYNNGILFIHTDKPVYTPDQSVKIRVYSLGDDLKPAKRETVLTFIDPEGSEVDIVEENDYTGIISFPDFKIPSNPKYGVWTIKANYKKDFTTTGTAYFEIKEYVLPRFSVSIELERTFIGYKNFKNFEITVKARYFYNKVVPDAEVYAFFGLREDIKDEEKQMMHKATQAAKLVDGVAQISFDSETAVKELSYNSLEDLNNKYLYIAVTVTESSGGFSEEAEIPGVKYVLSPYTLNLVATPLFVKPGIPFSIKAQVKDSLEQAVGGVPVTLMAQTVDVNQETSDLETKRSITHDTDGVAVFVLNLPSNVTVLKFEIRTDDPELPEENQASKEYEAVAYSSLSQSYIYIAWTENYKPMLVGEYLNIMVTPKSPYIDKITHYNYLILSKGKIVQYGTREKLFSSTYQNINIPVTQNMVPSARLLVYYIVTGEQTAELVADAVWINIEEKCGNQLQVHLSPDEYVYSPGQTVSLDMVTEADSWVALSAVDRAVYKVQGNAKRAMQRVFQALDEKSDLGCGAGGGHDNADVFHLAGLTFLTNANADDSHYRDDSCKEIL
T1 chain 2: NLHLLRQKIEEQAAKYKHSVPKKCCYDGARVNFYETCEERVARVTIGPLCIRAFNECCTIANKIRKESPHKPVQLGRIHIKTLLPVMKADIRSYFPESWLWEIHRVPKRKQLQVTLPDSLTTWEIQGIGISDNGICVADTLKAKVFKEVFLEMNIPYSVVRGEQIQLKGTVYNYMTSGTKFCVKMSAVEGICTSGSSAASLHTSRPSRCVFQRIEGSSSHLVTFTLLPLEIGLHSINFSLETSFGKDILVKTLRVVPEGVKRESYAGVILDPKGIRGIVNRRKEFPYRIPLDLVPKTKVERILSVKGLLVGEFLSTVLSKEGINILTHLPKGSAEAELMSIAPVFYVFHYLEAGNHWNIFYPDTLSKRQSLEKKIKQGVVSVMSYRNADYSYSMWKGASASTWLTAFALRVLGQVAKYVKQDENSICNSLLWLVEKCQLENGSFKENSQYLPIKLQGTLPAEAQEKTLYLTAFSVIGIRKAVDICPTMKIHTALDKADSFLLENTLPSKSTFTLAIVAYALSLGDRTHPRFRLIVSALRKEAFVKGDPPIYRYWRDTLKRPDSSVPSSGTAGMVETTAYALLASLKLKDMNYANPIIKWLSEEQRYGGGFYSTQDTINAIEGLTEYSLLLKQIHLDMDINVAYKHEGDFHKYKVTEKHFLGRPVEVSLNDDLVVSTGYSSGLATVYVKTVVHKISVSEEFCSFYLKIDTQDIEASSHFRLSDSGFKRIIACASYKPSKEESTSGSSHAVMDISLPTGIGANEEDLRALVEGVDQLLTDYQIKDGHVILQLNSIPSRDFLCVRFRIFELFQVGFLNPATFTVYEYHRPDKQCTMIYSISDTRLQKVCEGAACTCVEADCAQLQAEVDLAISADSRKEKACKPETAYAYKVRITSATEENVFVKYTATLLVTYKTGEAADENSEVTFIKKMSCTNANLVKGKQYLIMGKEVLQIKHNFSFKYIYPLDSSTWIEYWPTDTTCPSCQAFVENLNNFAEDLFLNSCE

T2: FcγRIIb/c (human, UniProt P31994)
T2 chain: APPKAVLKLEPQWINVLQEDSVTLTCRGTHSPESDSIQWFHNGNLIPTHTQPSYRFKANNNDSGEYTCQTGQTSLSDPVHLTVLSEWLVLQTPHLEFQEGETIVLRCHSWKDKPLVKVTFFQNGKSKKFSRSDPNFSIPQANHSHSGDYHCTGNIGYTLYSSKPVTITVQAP

T3: FcγRIIa (human, UniProt P12318)
T3 chain: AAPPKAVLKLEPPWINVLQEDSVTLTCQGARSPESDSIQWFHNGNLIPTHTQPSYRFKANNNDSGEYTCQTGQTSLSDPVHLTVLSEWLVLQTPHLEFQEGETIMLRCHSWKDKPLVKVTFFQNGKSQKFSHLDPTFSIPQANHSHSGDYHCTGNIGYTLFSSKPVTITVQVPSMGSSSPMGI

B1: BHL009 (antibody)
chain 1: QVQLQQPGAELVRPGTSVKLSCKASGYTFTSSWMHWVKQRPGQGLEWIGVIDPHDSYTNYNQKFKGKATLTVDTSSSTAYMQLSSLTSEDSAVYYCARGGGSSYNRYFDVWGTGTTVTVSSASTKGPSVFPLAPCSRSTSESTAALGCLVKDYFPEPVTVSWNSGALTSGVHTFPAVLQSSGLYSLSSVVTVPSSNFGTQTYTCNVDHKPSNTKVDKTVERKCCVECPPCPAPPVAGPSVFLFPPKPKDTLMISRTPEVTCVVVDVSQEDPEVQFNWYVDGVEVHNAKTKPREEQFNSTYRVVSVLTVLHQDWLNGKEYKCKVSNKGLPSSIEKTISKAKGQPREPQVYTLPPSQEEMTKNQVSLTCLVKGFYPSDIAVEWESNGQPENNYKTTPPVLDSDGSFFLYSRLTVDKSRWQEGNVFSCSVLHEALHSHYTQKSLSLSLGK
chain 2: not shown
B2: BHL006 (antibody)
chain 1: QVQLQQPGAELVRPGTSVKLSCKASGYTFTSSWMHWVKQRPGQGLEWIGVIDPHDSYTNYNQKFKGKATLTVDTSSSTAYMQLSSLTSEDSAVYYCARGGGSSYNRYFDVWGTGTTVTVSSASTKGPSVFPLAPCSRSTSESTAALGCLVKDYFPEPVTVSWNSGALTSGVHTFPAVLQSSGLYSLSSVVTVPSSNFGTQTYTCNVDHKPSNTKVDKTVERKCCVECPPCPAPPVAGPSVFLFPPKPKDTLMISRTPEVTCVVVDVSQEDPEVQFNWYVDGVEVHNAKTKPREEQFNSTYRVVSVLTVLHQDWLNGKEYKCKVSNKGLPSSIEKTISKAKGQPREPQVYTLPPSQEEMTKNQVSLTCLVKGFYPSDIAVEWESNGQPENNYKTTPPVLDSDGSFFLYSRLTVDKSRWQEGNVFSCSVMHEALHNHYTQKSLSLSLGK
chain 2: not shown
B3: EHL004 (antibody, V domains shown)
VH: QVQLVQSGAEVKKPGASVKVSCKASGYIFSNYWIQWVRQAPGQGLEWMGEILPGSGHTEYTENFKDRVTMTRDTSTSTVYMELSSLRSEDTAVYYCARYFFGSSPNWYFDVWGQGTLVTVSS
VL: DIQMTQSPSSLSASVGDRVTITCGASENIYHALNWYQQKPGKAPKLLIYGATNLADGVPSRFSGSGSGTDFTLTISSLQPEDFATYYCQNVLNTPLTFGQGTKVEIK
B4: EHL046 (antibody, V domains shown)
VH: QVQLVQSGAEVKKPGASVKVSCKASGHIFSNYWIQWVRQAPGQGLEWMGEIHPGSGSTEYTENFKDRVTMTRDTSTSTVYMELSSLRSEDTAVYYCARYFFGSSPNWYFDVWGQGTLVTVSS
VL: DIQMTQSPSSLSASVGDRVTITCGASENIYHALNWYQQKPGKAPKLLIYGATNLADGVPSRFSGSGSGTDFTLTISSLQPEDFATYYCQNVLNTPLTFGQGTKVEIK
B5: BHL011 (antibody, V domains shown)
VH: QVQLQQPGAELVRPGTSVKLSCKASGYTFTSSWMHWVKQRPGQGLEWIGVIDPSDSYTNYNQKFKGKATLTVDTSSSTAYMQLSSLTSEDSAVYYCARGGGSSYNRYFDVWGTGTTVTVSS
VL: NIMMTQSPSSLAVSAGEKVTMSCKSSQSVLYSSNQKNYLAWYQQKPGQSPKLLIYWASTRESGVPDRFTGSGSGTDFTLTISSVQAEDLAVYYCAQYLSSRTFGGGTKLEIKR
B6: eculizumab (full length) (antibody)
chain 1: QVQLVQSGAEVKKPGASVKVSCKASGYIFSNYWIQWVRQAPGQGLEWMGEILPGSGSTEYTENFKDRVTMTRDTSTSTVYMELSSLRSEDTAVYYCARYFFGSSPNWYFDVWGQGTLVTVSSASTKGPSVFPLAPCSRSTSESTAALGCLVKDYFPEPVTVSWNSGALTSGVHTFPAVLQSSGLYSLSSVVTVPSSNFGTQTYTCNVDHKPSNTKVDKTVERKCCVECPPCPAPPVAGPSVFLFPPKPKDTLMISRTPEVTCVVVDVSQEDPEVQFNWYVDGVEVHNAKTKPREEQFNSTYRVVSVLTVLHQDWLNGKEYKCKVSNKGLPSSIEKTISKAKGQPREPQVYTLPPSQEEMTKNQVSLTCLVKGFYPSDIAVEWESNGQPENNYKTTPPVLDSDGSFFLYSRLTVDKSRWQEGNVFSCSVMHEALHNHYTQKSLSLSLGK
chain 2: DIQMTQSPSSLSASVGDRVTITCGASENIYGALNWYQQKPGKAPKLLIYGATNLADGVPSRFSGSGSGTDFTLTISSLQPEDFATYYCQNVLNTPLTFGQGTKVEIKRTVAAPSVFIFPPSDEQLKSGTASVVCLLNNFYPREAKVQWKVDNALQSGNSQESVTEQDSKDSTYSLSSTLTLSKADYEKHKVYACEVTHQGLSSPVTKSFNRGEC

How the values were obtained:
[1] = target: T1, mouse C5; test: SPR, pH 6.0
[2] = target: T1, mouse C5; test: SPR, pH 7.4
[3] = target: T4, human C5 (human, UniProt P01031); test: SPR
[4] = target: T4, human C5; test: SPR; remark: listed apart in the source
[5] = target: T1, mouse C5; test: SPR, pH 6.0
[6] = target: T2, FcγRIIb/c; test: SPR, pH 7.4
[7] = target: T3, FcγRIIa; test: SPR, pH 7.4

Row | Binder | binding result [1] | Kd [2] | Kd [3] | other results
1 | B1 | no binding | 4.19 nM | – | –
2 | B2 | no binding | 3.49 nM | – | –
3 | B3 | – | – | 0.135 nM | Kd [4]: 374 nM
4 | B4 | – | – | 1.15 nM | –
5 | B5 | – | 0.0952 nM | – | Kd [5]: 53.6 nM
6 | B6 | – | – | – | Kd [6]: 9840 nM; Kd [7]: 2580 nM
